Paper PMC5125287 (Annals of Medicine, 2016)

Molecular target: Recombinant carrier-free human βNGF (human, UniProt P01138 122-241)
Assay: SPR; BIACORE; PDPN/Fc amine-coupled to a CM5 chip (6000 to 8000 RU); analyte injected at 5 μl/min; NGF at 1 μM; 20 °C; HBS-P (0.01 M Hepes pH 7.4/0.15 M NaCl/0.005% Surfactant P20); reference channel subtracted; regeneration with 1% heparin in PBS; 1:1 Langmuir fit, KD estimated by the steady-state affinity model
Details: both partners purified

Recombinant carrier-free human βNGF, sequence (P01138 122-241): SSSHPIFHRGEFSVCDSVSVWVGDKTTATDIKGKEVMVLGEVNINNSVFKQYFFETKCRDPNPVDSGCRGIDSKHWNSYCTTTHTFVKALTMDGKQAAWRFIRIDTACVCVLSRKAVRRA

B1: Human podoplanin extracellular domain/Fc chimera (Fc fusion, UniProt Q86YL7 23-131, looked up)
chain: ASTGQPEDDTETTGLEGGVAMPGAEDDVVTPGTSEDRYKSGLTTLVATSVNSVTGIRIEDLPTSESTVHAQEQSPSATASNVATSHSTEKVDGDTQTTVEKDGLSTVTL
  Kd: ~100 nM
